Reference: publication PMC13456619, “The (Glg)ABCs of cyanobacteria: modelling of glycogen synthesis and functional divergence of glycogen synthases in Synechocystis sp. PCC 6803” (Febs Letters, 2026)

B1: GlgA1 (Synechocystis sp. PCC 6803 substr. Kazusa) (protein)
chain: MKILFVAAEVSPLAKVGGMGDVVGSLPKVLHQLGHDVRVFMPYYGFIGDKIDVPKEPVWKGEAMFQQFAVYQSYLPDTKIPLYLFGHPAFDSRRIYGGDDEAWRFTFFSNGAAEFAWNHWKPEIIHCHDWHTGMIPVWMHQSPDIATVFTIHNLAYQGPWRGLLETMTWCPWYMQGDNVMAAAIQFANRVTTVSPTYAQQIQTPAYGEKLEGLLSYLSGNLVGILNGIDTEIYNPAEDRFISNVFDADSLDKRVKNKIAIQEETGLEINRNAMVVGIVARLVEQKGIDLVIQILDRFMSYTDSQLIILGTGDRHYETQLWQMASRFPGRMAVQLLHNDALSRRVYAGADVFLMPSRFEPCGLSQLMAMRYGCIPIVRRTGGLVDTVSFYDPINEAGTGYCFDRYEPLDCFTAMVRAWEGFRFKADWQKLQQRAMRADFSWYRSAGEYIKVYKGVVGKPEELSPMEEEKIAELTASYR
notes: full-length, N-terminal His tag, expressed in E. coli, IMAC and anion exchange
B2: GlgA2 (Synechocystis sp. PCC 6803 substr. Kazusa) (protein)
chain: MYIVQIASECAPVIKAGGLGDVIYGLSRELELRGHCVELILPMYDCMRYDHIWGLHDAYRNLEVPWYGSSIFCDVFCGWVHGRLCFFIQPKSSDNFFNRGHYYGALDDHMRFAFFSKAAMEFLLRSNKRPDIIHCHDWQTGLVPVLLYEIYRFHGMDHQRVCYTIHNFKHQGIAGANILHATGLNNDSYYFSYDRLQDNFNPNAINFMKGGIVYSNYVNTVSPHHAWEARFSDISCGLGHTLEIHQQKFGGILNGLDYEVWNPEIDPLLASNFSVKTFGDKAKNKQALRERLLLETDDKKPMLCFIGRLDGQKGVHLVHHSIYYALSQGAQFVLLGSATEPNLSKWFWHEKQHLNDNPNVHLELGFDEELAHLIYGAADIIVVPSNYEPCGLTQMIGLRYGAVPVVRGVGGLVNTVFDRDYDQNHPPEKRNGFVFYQPDEYALETALSRAIALYKDDPVAFKTLALQGMAYDYSWNKPGLQYVEAYEYIRA
notes: full-length in pET28a, N-terminal His tag, expressed in E. coli, IMAC and anion exchange
B3: GlgA^ E.coli (Escherichia coli K-12) (protein)
chain: MQVLHVCSEMFPLLKTGGLADVIGALPAAQIADGVDARVLLPAFPDIRRGVTDAQVVSRRDTFAGHITLLFGHYNGVGIYLIDAPHLYDRPGSPYHDTNLFAYTDNVLRFALLGWVGAEMASGLDPFWRPDVVHAHDWHAGLAPAYLAARGRPAKSVFTVHNLAYQGMFYAHHMNDIQLPWSFFNIHGLEFNGQISFLKAGLYYADHITAVSPTYAREITEPQFAYGMEGLLQQRHREGRLSGVLNGVDEKIWSPETDLLLASRYTRDTLEDKAENKRQLQIAMGLKVDDKVPLFAVVSRLTSQKGLDLVLEALPGLLEQGGQLALLGAGDPVLQEGFLAAAAEYPGQVGVQIGYHEAFSHRIMGGADVILVPSRFEPCGLTQLYGLKYGTLPLVRRTGGLADTVSDCSLENLADGVASGFVFEDSNAWSLLRAIRRAFVLWSRPSLWRFVQRQAMAMDFSWQVAAKSYRELYYRLK
notes: as for B2

Columns and labels:
[1] = substrate: Nc1ncnc2c1ncn2[C@@H]1O[C@H](COP(=O)(O)OP(=O)(O)O[C@H]2O[C@H](CO)[C@@H](O)[C@H](O)[C@H]2O)[C@@H](O)[C@H]1O; test: purified protein; format: biochemical, Synechocystis sp. PCC 6803; details: 1 mg/mL bovine glycogen primer, 12 mM MgCl2, 50 mM HEPES-NaOH pH 8.0, 30 °C, no GlgB
[2] = substrate: Nc1ncnc2c1ncn2[C@@H]1O[C@H](COP(=O)(O)OP(=O)(O)O[C@H]2O[C@H](CO)[C@@H](O)[C@H](O)[C@H]2O)[C@@H](O)[C@H]1O; test: purified protein; format: biochemical, Escherichia coli; details: 1 nM enzyme, 1 mg/mL bovine glycogen primer, 12 mM MgCl2, 50 mM HEPES-NaOH pH 8.0, 30 °C, no GlgB

Protein	Km [1] [µM]	Km [2] [µM]
B1	152 ± 3.6	
B2	219 ± 9.9	
B3		275 ± 17
